Reference: publication PMC9838529
Several values for one entry are separate records, joined by “and”; a condition that tells them apart may be missing. Equal values may be shown once.

Experiments:
[1] = biological target: aE11 IgG (mouse); experiment: SPR; aE11 IgG amine-coupled to a CM5 chip (~7000 RU), monomeric C9 as analyte; Biacore T200, 25 °C; 10 mM HEPES-NaOH pH 7.2, 150 mM NaCl, 1 mM EDTA, 0.005% P20; multi-cycle kinetics; off rate from a simple exponential decay (1:1 model); steady state not reached
[2] = biological target: monoclonal mouse antibody aE11 (full IgG) (mouse); experiment: SPR; aE11 IgG amine-coupled to a CM5 chip (~7000 RU), monomeric C9 as analyte; Biacore T200, 25 °C; 10 mM HEPES-NaOH pH 7.2, 150 mM NaCl, 1 mM EDTA, 0.005% P20; multi-cycle kinetics; off rate from a simple exponential decay (1:1 binding model); n = 2
[3] = biological target: polyC9 (in vitro homo-oligomerised human C9, wild type) (human); experiment: cryo-EM structure; aE11-Fab mixed with polyC9 in stoichiometric quantities; 1 mg/ml in 10 mM HEPES, 50 mM NaCl, pH 7.2; symmetry expansion and focused refinement of three C9 protomers and two Fab variable regions

Chain of monoclonal mouse antibody aE11 (full IgG) (mouse) (heavy, as listed by the source, chain 1 of 2): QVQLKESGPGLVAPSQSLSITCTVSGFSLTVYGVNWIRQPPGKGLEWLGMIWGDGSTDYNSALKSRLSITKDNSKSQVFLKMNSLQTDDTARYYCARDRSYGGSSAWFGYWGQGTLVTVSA
Chain of monoclonal mouse antibody aE11 (full IgG) (mouse) (light, as listed by the source, chain 2 of 2): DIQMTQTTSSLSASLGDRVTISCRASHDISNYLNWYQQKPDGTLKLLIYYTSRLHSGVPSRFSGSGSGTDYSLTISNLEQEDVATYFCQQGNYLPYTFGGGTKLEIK
Chain of aE11 IgG (mouse) (heavy, as listed by the source, chain 1 of 2): as the sequence (heavy, as listed by the source, chain 1 of 2) above
Chain of aE11 IgG (mouse) (light, as listed by the source, chain 2 of 2): as the sequence (light, as listed by the source, chain 2 of 2) above
Chain of human complement C9, wild type, monomeric (P02748 22-559): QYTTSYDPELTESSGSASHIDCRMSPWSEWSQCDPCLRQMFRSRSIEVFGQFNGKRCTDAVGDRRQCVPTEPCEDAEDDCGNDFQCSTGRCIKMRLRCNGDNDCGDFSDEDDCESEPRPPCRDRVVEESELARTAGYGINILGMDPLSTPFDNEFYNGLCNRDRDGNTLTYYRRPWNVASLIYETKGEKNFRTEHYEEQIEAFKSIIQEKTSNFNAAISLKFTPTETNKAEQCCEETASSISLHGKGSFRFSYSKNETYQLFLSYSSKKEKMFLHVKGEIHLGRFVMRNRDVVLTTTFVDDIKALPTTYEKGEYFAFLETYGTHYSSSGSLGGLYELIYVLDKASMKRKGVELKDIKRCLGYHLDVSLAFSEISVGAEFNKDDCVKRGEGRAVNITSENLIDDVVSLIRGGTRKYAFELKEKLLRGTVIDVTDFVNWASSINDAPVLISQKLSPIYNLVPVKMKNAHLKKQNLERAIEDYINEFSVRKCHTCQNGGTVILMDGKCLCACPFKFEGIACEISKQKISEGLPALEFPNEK
Chain of monomeric human C9, wild type (recombinant) (P02748 22-559): as above

| Substance | koff [1] [s⁻¹] | koff [2] | further results |
| --- | --- | --- | --- |
| disulphide-trapped C9 variant (F262C/V405C) (from UniProt P02748 22-559) (natural protein) | 0.0001 | – | – |
| human complement C9 F262C/V405C, disulphide-trapped, monomeric (from UniProt P02748 22-559) (natural protein) | – | 0.000267 s⁻¹ and 0.000353 s⁻¹ | – |
| human complement C9 P72E, monomeric (from UniProt P02748 22-559) (natural protein) | – | 0.000106 s⁻¹ and 6.14e-05 s⁻¹ | – |
| human complement C9 V68E, monomeric (from UniProt P02748 22-559) (natural protein) | – | 3.11e-05 s⁻¹ and 3.58e-05 s⁻¹ | – |
| monomeric human C9 P72E (from UniProt P02748 22-559) (natural protein) | 0.0001 | – | fold reduction of binding against wild-type monomeric C9 [1]: 2 fold |
| monomeric human C9 V68E (from UniProt P02748 22-559) (natural protein) | 0.0001 | – | fold reduction of binding against wild-type monomeric C9 [1]: 2 fold |
| polyC9 (in vitro homo-oligomerised human C9, wild type) (complex) | – | – | stoichiometry N [3]: 22 |

Further lines, with some results ahead:

| koff [1] [s⁻¹] | koff [2] | Substance | further results |
| --- | --- | --- | --- |
| – | 0.000214 s⁻¹ and 8.63e-05 s⁻¹ | human complement C9 R65Q, monomeric (from UniProt P02748 22-559) (natural protein) | – |
| – | 0.000169 s⁻¹ and 0.000183 s⁻¹ | human complement C9, wild type, monomeric (from UniProt P02748 22-559) (natural protein) | – |
| 0.0001 | – | monomeric human C9 R65Q (from UniProt P02748 22-559) (natural protein) | – |
| 0.0001 | – | monomeric human C9, wild type (recombinant) (from UniProt P02748 22-559) (natural protein) | Kd [1]: 500 to 2000 nM |
